Literature values, collected in paper PMC6120632.

Target: Basigin (Homo sapiens) (UniProt P35613)
Sequence of UniProt P35613 (P35613 22-325): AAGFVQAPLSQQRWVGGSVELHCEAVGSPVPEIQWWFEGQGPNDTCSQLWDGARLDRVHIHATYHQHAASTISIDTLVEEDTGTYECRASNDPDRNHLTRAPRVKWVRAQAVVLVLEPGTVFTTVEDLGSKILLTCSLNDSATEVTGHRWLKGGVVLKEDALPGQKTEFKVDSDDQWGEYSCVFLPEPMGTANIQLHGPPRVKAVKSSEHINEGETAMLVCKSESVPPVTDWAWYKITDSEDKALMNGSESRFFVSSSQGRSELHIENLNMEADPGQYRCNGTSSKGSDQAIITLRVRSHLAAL

RH5 (from UniProt Q8IFM5)
Kd: 1000 nM
